Measurements from patent publication US20100048709A1 (UNIVERSITY OF BRITISH COLUMBIA, published 2010).

Legend:
[1] = target: T1, recombinant rat thioredoxin-fused AR ligand binding domain (PanVera, 48.4 kDa), P15207
T1 chain: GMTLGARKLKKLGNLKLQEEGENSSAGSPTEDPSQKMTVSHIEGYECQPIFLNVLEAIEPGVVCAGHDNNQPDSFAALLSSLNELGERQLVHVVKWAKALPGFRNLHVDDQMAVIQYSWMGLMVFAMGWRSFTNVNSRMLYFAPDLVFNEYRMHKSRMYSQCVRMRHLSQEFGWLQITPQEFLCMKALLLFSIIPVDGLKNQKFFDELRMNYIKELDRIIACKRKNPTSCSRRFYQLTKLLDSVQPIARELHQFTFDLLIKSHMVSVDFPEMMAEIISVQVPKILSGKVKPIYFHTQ

[2] = target: T2, recombinant rat thioredoxin-fused AR ligand binding domain (PanVera, 48.4 kDa) (rat, UniProt P15207 606-902); experiment: cell-based or functional assay
T2 sequence (looked up): T1 chain

apparent affinity for androgen (R1881) by the AR-LBD, hydroxylapatite pulldown ligand binding assay [2]: 2.1 fold
increase in bound R1881 at 100 nM R1881 [2]: 1.75 fold
increase in bound R1881 at 1000 nM R1881 [2]: 1.71 fold
B1: purified His-tagged-DDC protein (6x-His N-terminal fusion of dopa decarboxylase) (enzyme, human, UniProt P20711 2-480, looked up, not shown: small tags and cut ends)
chain: NASEFRRRGKEMVDYMANYMEGIEGRQVYPDVEPGYLRPLIPAAAPQEPDTFEDIINDVEKIIMPGVTHWHSPYFFAYFPTASSYPAMLADMLCGAIGCIGFSWAASPACTELETVMMDWLGKMLELPKAFLNEKAGEGGGVIQGSASEATLVALLAARTKVIHRLQAASPELTQAAIMEKLVAYSSDQAHSSVERAGLIGGVKLKAIPSDGNFAMRASALQEALERDKAAGLIPFFMVATLGTTTCCSFDNLLEVGPICNKEDIWLHVDAAYAGSAFICPEFRHLLNGVEFADSFNFNPHKWLLVNFDCSAMWVKKRTDLTGAFRLDPTYLKHSHQDSGLITDYRHWQIPLGRRFRSLKMWFVFRMYGVKGLQAYIRKHVQLSHEFESLVRQDPRFEICVEVILGLVCFRLKGSNKVNEALLQRINSAKKIHLVPCHLRDKFVLRFAICSRTVESAHVQRAWEHIKELAADVLRAERE
R1881 concentration required to 50% saturate total AR-LBD protein [1]: in the absence of His-DDC, an R1881 concentration of 883 nM was required to 50% saturate total AR-LBD protein, while in the presence of His-DDC a lower androgen amount of 425 nM was necessary
